Assay results reported in the supplement of paper PMC11875167.

Assay: observed amide hydrogen exchange rate constant kobs (stretched exponential fit, FD-normalized) (s^-1); higher = faster H/D exchange (less protection)
Details: pH 3 (pH read); temperature: 20 °C; D2O: 88%
In short: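 Uptake curves were fitted to a stretched single exponential with β = 0.8, and kobs, the observed exchange rate constant, is the fitted rate. The data came from Jurkat tryptic peptides (LysC/trypsin, carbamidomethylated cysteines) labeled in 88% D2O at pHread 3, 20 °C, then quenched with 0.23% formic acid at 13 times from 18 to 93,600 s in processing triplicates. MS1 uptake from a Q-Exactive HF, analyzed in HDExaminer with no back-exchange correction, was normalized to full-deuteration controls (24 h, 37 °C).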

Substance | observed amide hydrogen exchange rate constant kobs
VELFFK | 0.000868
VELLLK | 0.000604
VESQLIGK | 0.00139
VETGVLKPGMVVTFAPVNVTTEVK | 0.000574
VEVQYK | 0.00112
VFEGNRPTNSIVFTK | 0.000712
VFIGNLNTLVVK | 0.000428
VFLAQK | 0.00073
VFSGLVSTGLK | 0.00112
VHIEIGPDGR | 0.00136
VHLVGIDIFTGK | 0.00113
VIGSGCNLDSAR | 0.00116
VIHDNFGIVEGLMTTVHAITATQK | 0.00116
VIPELNGK | 0.00159
VLATVTKPVGGDK | 0.000932
VLDFEHFLPMLQTVAK | 0.000855
VLEQLTGQTPVFSK | 0.00081
VLITTDLLAR | 0.000753
VLLPEYGGTK | 0.00144
VLNTNIDGR | 0.00162
VLQALEGLK | 0.00101
VLQATVVAVGSGSK | 0.000618

Substance | observed amide hydrogen exchange rate constant kobs
VLSSIEQK | 0.00109
VLTVINQTQK | 0.00141
VMLGETNPADSKPGTIR | 0.00166
VMVQPINLIFR | 0.000387
VNFAMNVGK | 0.000903
VPPPPPIAR | 0.000659
VPSLVGSFIR | 0.000779
VRVELSNGEK | 0.00127
VSFELFADK | 0.00165
VSHLLGINVTDFTR | 0.00119
VSHVSTGGGASLELLEGK | 0.000818
VTIAQGGVLPNIQAVLLPK | 0.000495
VTLATLK | 0.000759
VTLDWAK | 0.00095
VTLTSEEEAR | 0.00196
VTVITK | 0.000489
VVDLLAPYAK | 0.000767
VVLIGGKPDR | 0.00162
VVSSIEQK | 0.00104
VVVSGLPPSGSWQDLK | 0.000996
VYALPEDLVEVNPK | 0.0011
VYVGNLGNNGNK | 0.00211

Substance | observed amide hydrogen exchange rate constant kobs
WTGMIIGPPR | 0.000901
YAFVNWINK | 0.00131
YAISMAR | 0.00127
YALYDATYETK | 0.00134
YAVLYQPLFDK | 0.000677
YHTINGHNAEVR | 0.00291
YHTSQSGDEMTSLSEYVSR | 0.00202
YIDQEELNK | 0.00207
YISPDQLADLYK | 0.000916
YLAEFATGNDRK | 0.0022
YLIPNATQPESK | 0.000945
YLNFFTK | 0.00107
YLPELMAEK | 0.000924
YLTVAAVFR | 0.000527
YNQLLR | 0.000842
YPALHKPENQDIDWGALEGETR | 0.0022
YPIEHGIITNWDDMEK | 0.00172
YPSPFFVFGEK | 0.000978
YTPSGQAGAAASESLFVSNHAY | 0.00149
YYVTIIDAPGHR | 0.00127
